Series [1] addresses T1, benzoate CoA ligase (BadA) (Rhodopseudomonas palustris, UniProt Q6NC13, H333A/I334A, form not given).
T1 construct: recombinant in E. coli BL21 (DE3), Ni-NTA purified
In words: X-ray crystal structure. The series is classed as binding. The following applies: acyl-adenylate intermediate in active site; thiolation conformation, no CoA.

The target of series [2] is T2, Malonyl-CoA synthetase from Rhizobium triofli (RtMCS) (Rhizobium leguminosarum, UniProt Q9ZIP5).
T2 construct: gene matB; recombinant in E. coli, Ni-NTA purified
T2 sequence (Q9ZIP5 1-504): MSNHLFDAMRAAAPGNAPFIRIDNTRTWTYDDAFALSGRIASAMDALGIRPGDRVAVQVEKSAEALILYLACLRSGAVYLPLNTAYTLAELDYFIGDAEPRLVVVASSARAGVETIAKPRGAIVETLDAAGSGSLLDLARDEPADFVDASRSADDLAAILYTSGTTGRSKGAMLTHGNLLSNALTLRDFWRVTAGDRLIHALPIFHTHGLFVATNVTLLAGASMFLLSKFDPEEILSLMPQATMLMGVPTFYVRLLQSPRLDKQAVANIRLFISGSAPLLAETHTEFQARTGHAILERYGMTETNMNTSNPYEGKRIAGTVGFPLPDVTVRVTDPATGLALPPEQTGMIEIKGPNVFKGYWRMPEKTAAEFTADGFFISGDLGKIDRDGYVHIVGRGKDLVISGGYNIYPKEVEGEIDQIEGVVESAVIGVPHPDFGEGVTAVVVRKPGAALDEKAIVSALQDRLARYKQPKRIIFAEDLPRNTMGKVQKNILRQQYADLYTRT
In words: HPLC and LC-ESI-MS of malonyl-CoA. Type of series: biochemical. The settings on record: 5 mM ATP, 2 mM CoA, 5 mM Mg2+, pH 7.5, room temperature; ATP regeneration.

Substrate in series [3]: Cc1ncsc1C(=O)SCCNC(=O)CCNC(=O)[C@H](O)C(C)(C)COP(=O)(O)OP(=O)(O)OC[C@H]1O[C@@H](n2cnc3c(N)ncnc32)[C@H](O)[C@@H]1OP(=O)(O)O
The series is described as follows: HPLC product formation, Michaelis-Menten fit. The series is classed as biochemical, Pinus sylvestris. The following applies: 60 μM malonyl-CoA, 100 mM potassium phosphate pH 7.4, 1 mM EDTA, 30 °C. From the text: (§1) HPLC product formation, Michaelis-Menten fit on stilbene synthase (STS) from Pinus sylvestris

Substrate in series [4]: CC(C)(COP(=O)(O)OP(=O)(O)OC[C@H]1O[C@@H](n2cnc3c(N)ncnc32)[C@H](O)[C@@H]1OP(=O)(O)O)[C@@H](O)C(=O)NCCC(=O)NCCSC(=O)CCCCCc1ccccc1
In words: HPLC product formation, Michaelis-Menten fit. Type of series: biochemical, Pinus sylvestris. The settings on record: 60 μM malonyl-CoA, 100 mM potassium phosphate pH 7.4, 1 mM EDTA, 30 °C.
Text: as §1

Substrate in series [5]: CC(C)(COP(=O)(O)OP(=O)(O)OC[C@H]1O[C@@H](n2cnc3c(N)ncnc32)[C@H](O)[C@@H]1OP(=O)(O)O)[C@@H](O)C(=O)NCCC(=O)NCCSC(=O)Cc1ccc(-c2ccccc2)cc1
The series is described as follows: HPLC product formation, Michaelis-Menten fit. Type of series: biochemical, Pinus sylvestris. The settings on record: 60 μM malonyl-CoA, 100 mM potassium phosphate pH 7.4, 1 mM EDTA, 30 °C.
Text: as §1

Substrate in series [6]: CC(C)(COP(=O)(O)OP(=O)(O)OC[C@H]1O[C@@H](n2cnc3c(N)ncnc32)[C@H](O)[C@@H]1OP(=O)(O)O)[C@@H](O)C(=O)NCCC(=O)NCCSC(=O)c1cnc(Cl)s1
The series is described as follows: HPLC product formation, Michaelis-Menten fit. The series is classed as biochemical, Pinus sylvestris. The following applies: 60 μM malonyl-CoA, 100 mM potassium phosphate pH 7.4, 1 mM EDTA, 30 °C.
Text: as §1

Substrate in series [7]: CC(C)(COP(=O)(O)OP(=O)(O)OC[C@H]1O[C@@H](n2cnc3c(N)ncnc32)[C@H](O)[C@@H]1OP(=O)(O)O)[C@@H](O)C(=O)NCCC(=O)NCCSC(=O)CCCCc1ccc(F)cc1
The series is described as follows: HPLC product formation, Michaelis-Menten fit. Type of series: biochemical, Pinus sylvestris. The following applies: 60 μM malonyl-CoA, 100 mM potassium phosphate pH 7.4, 1 mM EDTA, 30 °C.
Text: as §1

Substrate in series [8]: CC(C)(COP(=O)(O)OP(=O)(O)OC[C@H]1O[C@@H](n2cnc3c(N)ncnc32)[C@H](O)[C@@H]1OP(=O)(O)O)[C@@H](O)C(=O)NCCC(=O)NCCSC(=O)CCCCCCc1ccccc1
The series is described as follows: HPLC product formation, Michaelis-Menten fit. The series is classed as biochemical, Pinus sylvestris. The following applies: 60 μM malonyl-CoA, 100 mM potassium phosphate pH 7.4, 1 mM EDTA, 30 °C.
Text: as §1

Substrate in series [9]: Cc1ncc(C(=O)SCCNC(=O)CCNC(=O)[C@H](O)C(C)(C)COP(=O)(O)OP(=O)(O)OC[C@H]2O[C@@H](n3cnc4c(N)ncnc43)[C@H](O)[C@@H]2OP(=O)(O)O)s1
In words: HPLC product formation, Michaelis-Menten fit. Type of series: biochemical, Pinus sylvestris. The settings on record: 60 μM malonyl-CoA, 100 mM potassium phosphate pH 7.4, 1 mM EDTA, 30 °C.
Text: as §1

T1 sequence (Q6NC13 entry or part of it H333A/I334A, form open): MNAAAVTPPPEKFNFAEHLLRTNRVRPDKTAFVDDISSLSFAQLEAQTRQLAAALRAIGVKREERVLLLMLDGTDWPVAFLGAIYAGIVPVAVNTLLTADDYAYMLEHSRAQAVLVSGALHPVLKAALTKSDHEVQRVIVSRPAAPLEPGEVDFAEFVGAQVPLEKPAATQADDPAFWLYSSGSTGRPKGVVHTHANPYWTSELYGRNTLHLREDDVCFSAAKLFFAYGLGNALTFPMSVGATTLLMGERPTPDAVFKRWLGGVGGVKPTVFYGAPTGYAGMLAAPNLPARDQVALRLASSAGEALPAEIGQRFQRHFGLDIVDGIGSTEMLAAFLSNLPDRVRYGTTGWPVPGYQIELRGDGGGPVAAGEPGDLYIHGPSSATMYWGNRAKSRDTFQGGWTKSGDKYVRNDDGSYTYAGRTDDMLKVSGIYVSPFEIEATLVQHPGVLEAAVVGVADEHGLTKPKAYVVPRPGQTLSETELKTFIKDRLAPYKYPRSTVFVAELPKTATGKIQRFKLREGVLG

Regarding `Cc1ncc(C(=O)OP(=O)(O)OC[C@H]2O[C@@H](n3cnc4c(N)ncnc43)[C@H](O)[C@@H]2O)s1` [2-methylthiazole-5-carboxyl-AMP], the X-ray crystal structure in [1] is 2-methylthiazole-5-carboxyl-AMP (2M5C-AMP) (PDB entry 6M2T) intermediate were obtained.

Turning to `Nc1ncnc2c1ncn2[C@@H]1O[C@H](COP(=O)(O)OC(=O)c2cnc(Cl)s2)[C@@H](O)[C@H]1O` [2-chloro-1,3-thiazole-5-carboxyl-AMP], the X-ray crystal structure entry in series [1] is “in complex with a 2-chloro-1,3-thiazole-5-carboxyl-AMP (2Cl5C-AMP) (PDB entry 6M2U)”.

`O=C(O)CC(=O)O` [malonic acid]: the “HPLC and LC-ESI-MS of malonyl-CoA” value in series [2] was “Malonyl-CoA was chemo-enzymatically prepared from malonate, CoA, and ATP using RtMCS”.

B1: stilbene synthase (STS) from Pinus sylvestris (Pinus sylvestris) (protein)
chain: MGGVDFEGFRKLQRADGFASILAIGTANPPNAVDQSTYPDFYFRITGNEHNTELKDKFKRICERSAIKQRYMYLTEEILKKNPDVCAFVEVPSLDARQAMLAMEVPRLAKEAAEKAIQEWGQSKSGITHLIFCSTTTPDLPGADFEVAKLLGLHPSVKRVGVFQHGCFAGGTVLRMAKDLAENNRGARVLVICSETTAVTFRGPSETHLDSLVGQALFGDGASALIVGADPIPQVEKACFEIVWTAQTVVPNSEGAIGGKVREVGLTFQLKGAVPDLISANIENCMVEAFSQFKISDWNKLFWVVHPGGRAILDRVEAKLNLDPTKLIPTRHVMSEYGNMSSACVHFILDQTRKASLQNGCSTTGEGLEMGVLFGFGPGLTIETVVLKSVPIQ
notes: recombinant in E. coli BL21 (DE3), Ni-NTA purified, size-exclusion
As usually defined, the Km is the concentration of substrate that gives half-maximal velocity. Broadly, the kcat is the maximal rate divided by the concentration of active sites. With B1, the Km in series [3] amounted to 3.82 µM; in [4], 43.89 µM; in series [5] it was 23.24 µM; in series [6] it was 12.77 µM; in series [7], 4.15 µM; in series [8], 29.42 µM. Besides, the Km in series [9] came out at 3.87 µM. In addition, the catalytic constant (kcat) was found to be 0.00267 s⁻¹ in series [3]; 0.0035 s⁻¹ in [5]; 0.00317 s⁻¹ in series [6]; 0.0045 s⁻¹ in [8]; 0.000167 s⁻¹ in series [9].
